The subject of assay [1] is arcuate MC3R expressing neurons (hM3Dq). The assay is described as follows: DREADD (hM3Dq) activation of arcuate MC3R neurons by CNO. It is filed as in vivo, mice. The text has this: (§1) FIG. 2. Potent Bidirectional Regulation of Feeding by DREADD Activation of MC3R ARC neurons. (A) Representative images showing hM3Dq-mCherry (red), and cfos (green), in the arcuate nucleus of a mouse transduced with hM3Dq in arcuate MC3R expressing neurons following CNO or saline administration. Panels on right are an enlargement of the boxed sections. (B) Quantification of cfos expression in the arcuate nucleus following i.p. injections of saline or CNO (unpaired Student's t-test). […] (C) Acute feeding assays following DREADD mediated activation of arcuate MC3R neurons. Activation of MC3R neurons increased food intake at all times tested (2-way ANOVA with Bonferroni post-hoc test, n=10 mice). (D) Change in body weight following a single injection of CNO or saline. […] (E) Daily food intake in MC3R-Cre mice targeted with the inhibitory DREADD hM4Di in arcuate MC3R expressing neurons. […] (F) Change in body weight following long term CNO injections in hM4Di transfected and WT mice. […]
(§2) To evaluate the effects of DREADD mediated manipulation of ARC-MC3R neurons on feeding and body weight, mice were habituated to twice daily vehicle injections (i.p., saline; 200 ul). […] Food intake was measured twice daily (10 am and 6 pm) during chronic i.p. injection experiments. Body weight was measured daily at 10 am immediately prior to administering CNO/saline. […]

Assay [2] deals with arcuate MC3R expressing neurons (hM4Di). The assay is described as follows: DREADD (hM4Di) inhibition of arcuate MC3R neurons by CNO. It counts as in vivo. As to conditions: hM4Di transfected mice vs WT control.
From the text: as §1, §2

The test system of assay [3] is WT mice. The assay is described as follows: CNO administration to WT mice. It is filed as in vivo. How it is done:
FIG. 9. […] 24-hour food intake following i.p. injections of saline or CNO. […] Data represented as mean+/−s.em. Data analyzed with Student's paired t-test. n=15 mice
Given the enhanced expression of MC3R in the orexigenic arcuate AgRP neurons, relative to POMC and vGLUT2 neurons, experiments were conducted during development of embodiments herein to determine whether the dominant role of MC3R in the arcuate is to stimulate food intake and increase body weight. A previously characterized (Ref. 18; herein incorporated by reference in its entirety) MC3R-Cre mouse model in which Cre recombinase is exclusively expressed in cells containing MC3R was utilized for these experiments. To selectively activate the MC3R expressing neurons in the arcuate, a Cre dependent AAV viral vector expressing the DREADD (designer receptor exclusively activated by designer drugs) activator hM3Dq was stereotaxically targeted to the arcuate nucleus in MC3R-Cre mice (Refs 22-23; herein incorporated by reference in their entireties) (FIG. 2). It was validated that CNO administration activates ARC-MC3R neurons by measuring the neuronal activity marker, cfos, in response to CNO or saline injections. […] To determine if chronic activation of ARC-MC3R neurons is a viable strategy for increasing food intake and body weight CNO was administered twice daily for five consecutive days. […]

The subject of assay [4] is PVN MC4R neurons. The assay is described as follows: In vivo calcium imaging (GCAMP6s endomicroscopy) of PVN MC4R neurons. The arrangement: species or system mice. As to conditions: 10 mg/kg, i.p., vs baseline.
Method: (left panels): Heat map displaying relative fluorescence, determined by endomicroscopy (Inscopix) of individual PVN MC4R neurons for five minutes of baseline recording, followed by five minutes of recording in response to a saline injection.
D: Change in florescence following i.p. administration of saline. […] F: Change in fluorescence following i.p. administration of the MC3R agonist C18 (10 mg/kg, i.p.). […] G: Heat plot showing real-time change in fluorescence activity in a representative mouse during baseline and following administration of C18. H: Average trace of the relative change in fluorescence before and after C18 administration. […] Data represents mean+/−s.e.m. for panels D-F. Panels D, F, and I analyzed with paired Student's t-test.
For assay [5], the target named is T1, MC3R (Mus musculus, UniProt P33033).
T1 construct: from tissue; host or cells: living mice (C57/BL6J background), central nervous system / hypothalamus
The assay is described as follows: MC3R agonist feeding assays (food intake, body weight) in WT mice. Conditions: for Acute food intake: 10 mg/kg, i.p., ad libitum fed mice, relative to vehicle; for 24-hour food intake / body weight: single peripheral injection. It counts as in vivo. The procedure: Clozapine-N-Oxide (CNO) was purchased from Enzo Life Sciences. On the day of experiments fresh stock CNO (1 mg/0.1 ml) was prepared in water. CNO was administered via i.p. injections (200 ul Saline; 1 mg/kg). […] (5 ug; 500 nl DMSO).
Behavioral assays were performed on ad libitum fed mice. Mice were single caged for at least one week prior to starting feeding assays. Feeding assays were performed during the light period.
For peripheral administration of MC3R agonist compounds, mice were first habituated to vehicle injections (i.p.; saline in 10% DMSO; 200 ul) for 2-4 consecutive days. Following habituation and consecutive days of stable food intake in response to vehicle injections, agonist compounds were administered (i.p.; 10 mg/kg; saline in 10% DMSO). Food intake was measured following drug or vehicle administration by carefully removing food from the food hopper and weighing on a scale. Cages were changed daily during acute feeding assays to prevent spillage of food from the food hopper.
For central administration of MC3R agonist compounds we first administered vehicle injections (500 nl DMSO) for 2-4 consecutive days to habituate mice to handling and injection. […] Body weight was measured daily immediately prior to injections.

In assay [6] the target is T2, MC3R (Homo sapiens, UniProt P41968). The assay is described as follows: Primary HTS antagonist assay / screen for MC3R antagonists.
From the text: Primary HTS antagonist assay. […] (B): Positive and negative assay with kinetics of antagonist and agonist addition indicated. (C): Scatterplot of corrected and normalized data. Typical Z′ factors are above 0.5.
The target in assay [7] is T2, MC3R. As to conditions: cited from earlier work.
For assay [8], the target named is T3, MC4R (Homo sapiens, UniProt P32245). As to conditions: cited from earlier work.
Assay [9] addresses T2, MC3R. As to conditions: cited from earlier work. The source holds these as a separate data set.
Assay [10] addresses T3, MC4R. Conditions: cited from earlier work. The source holds these as a separate data set.

“Also recorded” adds a separate entry of the source. Bridge positions count the residues as written; N and C are the ends. Square brackets hold non-standard residues; d marks the D form. Ends that are not written are not given here. d2Nal = N[C@H](Cc1ccc2ccccc2c1)C(=O)O; Ac6c = NC1(C(=O)O)CCCCC1; Nle = CCCC[C@H](N)C(=O)O

T1 sequence (P33033 whole entry): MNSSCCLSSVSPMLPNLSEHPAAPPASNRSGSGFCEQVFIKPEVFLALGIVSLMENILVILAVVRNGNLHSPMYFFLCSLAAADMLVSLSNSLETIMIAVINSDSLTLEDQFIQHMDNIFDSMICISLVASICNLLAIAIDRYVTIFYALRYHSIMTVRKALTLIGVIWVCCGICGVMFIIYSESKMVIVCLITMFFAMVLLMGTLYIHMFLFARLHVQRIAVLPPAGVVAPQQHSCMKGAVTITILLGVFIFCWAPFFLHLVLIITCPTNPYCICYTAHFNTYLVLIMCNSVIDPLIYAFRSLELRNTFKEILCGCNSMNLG
T2 sequence (P41968 whole entry): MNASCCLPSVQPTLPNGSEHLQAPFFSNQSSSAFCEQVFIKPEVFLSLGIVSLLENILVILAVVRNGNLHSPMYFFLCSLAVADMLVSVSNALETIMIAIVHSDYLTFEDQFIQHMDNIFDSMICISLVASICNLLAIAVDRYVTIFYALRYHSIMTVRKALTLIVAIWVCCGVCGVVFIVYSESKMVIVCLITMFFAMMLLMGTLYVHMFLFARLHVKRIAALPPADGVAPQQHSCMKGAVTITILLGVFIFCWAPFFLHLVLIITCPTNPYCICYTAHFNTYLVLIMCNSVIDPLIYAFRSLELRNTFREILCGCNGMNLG
T3 sequence (P32245 whole entry): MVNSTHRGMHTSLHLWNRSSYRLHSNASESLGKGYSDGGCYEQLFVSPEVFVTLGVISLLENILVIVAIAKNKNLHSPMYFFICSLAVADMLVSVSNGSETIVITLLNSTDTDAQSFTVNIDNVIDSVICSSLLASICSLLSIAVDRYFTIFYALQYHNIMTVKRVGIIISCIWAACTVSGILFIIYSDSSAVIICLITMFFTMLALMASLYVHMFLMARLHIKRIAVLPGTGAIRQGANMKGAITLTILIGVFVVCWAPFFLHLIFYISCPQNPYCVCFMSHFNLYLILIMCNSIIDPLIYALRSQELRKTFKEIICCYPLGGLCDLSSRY

Take `C[N+]1([O-])CCN(C2=Nc3cc(Cl)ccc3Nc3ccccc32)CC1` [CNO, Clozapine-N-Oxide]: the “cfos expression in the arcuate nucleus” value in [1] (i.p. CNO vs saline, hM3Dq in arcuate MC3R neurons) is “increased cfos expression in the arcuate nucleus; also recorded: Dense cfos expression was observed in ARC-MC3R neurons”. Further, the “Change in body weight” value is “Body weight increased on the day following CNO injection, remaining elevated five days following CNO injection” in assay [1] (single injection of CNO or saline, hM3Dq mice, CNO 0.1 mg/kg); “reduced BW in hM4Di transfected mice; also recorded: reduced both food intake and BW” in assay [2] (long term / twice daily CNO). The Daily food intake result in assay [2] (twice daily CNO) was “reduced daily food intake in hM4Di transfected mice; also recorded: reduced both food intake and BW”. In assay [3] (CNO injections, WT littermate control mice), the body weight entry was “No change in food intake or body weight; also recorded: No effect on BW”. In addition, in assay [3] (i.p. CNO vs saline, WT / littermate control mice), the food intake entry was “No change in food intake or body weight; also recorded: No difference in food intake was detected”.

On to “Ac-Nle-c[Asp-Pro-Pro-DNal(2′)-Arg-Trp-Lys]-NH2 (Ac-[Nle]DPP[d2Nal]RWK-NH2; lactam 2-8) [PG990]”, for which, in [4], the “Fluorescence activity of PVN MC4R neurons” value is “Fluorescence activity was suppressed”. For the same compound, in assay [5], the Acute food intake entry was “acutely stimulated food intake”, the 24-hour food intake result is “no significant difference” and the body weight result is given as “no significant difference”. The weight gain in [5] (3 days of treatment) came to 8%. Moreover, the “24 h food intake” value in assay [5] (PG990 series of peptides, route not given in the sentence) is reported as “increases 24 h food intake”.

Take Polymyxin B: the “MC3R over MC4R selectivity” value in [6] is “four-fold”. The “potency as MC3R antagonist” value in assay [6] (screen of Vanderbilt chemical library) is listed as “submicromolar potency”.

By IC50 is commonly meant the concentration that gives 50% inhibition. The EC50 is the concentration at which the effect is half-maximal. For the compound “[Ac6c-His-DPhe-Arg-Trp-Asp]-NH2 ([Ac6c]H[dF]RWD-NH2; N-terminus assumed; SMILES N=C(N)NCCC[C@H](NC(=O)[C@@H](Cc1ccccc1)NC(=O)[C@H](Cc1c[nH]cn1)NC(=O)C1(N)CCCCC1)C(=O)N[C@@H](Cc1c[nH]c2ccccc12)C(=O)N[C@@H](CC(=O)O)C(N)=O) [FMMC-5, MC3R peptide agonist]”, the IC50 in assay [7] is 10 nM. Also, the EC50 in assay [8] was 280 nM. Also, in [9], the EC50 is 30 nM. For the same compound, in [5], the Acute food intake entry is recorded as “acutely stimulated food intake”, the 24-hour food intake entry is given as “no significant difference” and the body weight entry was “no significant difference”. Besides, in assay [10], the IC50 was 260 nM.

Values taken from patent US20220313789A1, “TARGETING MELANOCORTIN 3 RECEPTOR FOR TREATMENT/PREVENTION OF EATING, METABOLISM, AND/OR EMOTIONAL DISORDERS” (The Regents of the University of Michigan, priority 2019, published 2022).
